Source: patent publication US9434716B2, “Antigen binding proteins” (Glaxo Group Limited, priority 2011, dated 2016)
Numbering of substitutions follows the chain as printed. “Also recorded” adds a separate entry of the source. One block for each molecule: values may come before it.

How the values were obtained:
human SAP [1] = molecular target: T1, human SAP (Homo sapiens, UniProt P02743); assay: Biacore kinetics, human SAP captured on immobilised O-phosphoethanolamine; type: binding; conditions: for binding with respect to H3L0: amino acid scan at position 91 of SAP-K L0 light chain
T1 construct: from tissue; host or cells: natural human SAP, purified
Description: O-phosphoethanolamine was immobilised on a Biacore CM5 chip by primary amine coupling in accordance with the manufacturer's instructions. Human SAP was then captured on the surface in the presence of calcium chloride, in order to replicate in the Biacore system in vitro, the precise orientation of SAP molecules bound to amyloid fibrils in vivo. Anti SAP antibodies were then passed over this surface at 256, 64, 16, 4, 1 nM and a binding sensorgrams obtained. Analysis was carried out at 25° C. using 4% BSA, 10 mM Tris, 140 mM NaCl, 2 mM CaCl2, 0.05% surfactant P20, 0.02% Na N3, pH 8.0 as running buffer. […] Data generated were double referenced with a buffer injection over the human SAP surface and analyzed using the bivalent analyte model in the Biacore T100 evaluation software.

circulating SAP = molecular target: T2, circulating SAP (Homo sapiens, UniProt P02743); conditions: for as long as the drug is administered; cited from earlier work
T2 construct: host or cells: circulating plasma protein in vivo

[2] = initial clinical studies; cited from earlier work
human SAP [3] = molecular target: T1, human SAP; assay: Biacore off-rate ranking, SAP immobilised on C1 chip; type: binding; conditions: culture supernatants, chimera purified at […], single curve, for ranking, 25° C.
Description: Human and cynomologus monkey SAP were immobilised on a Biacore C1 chip by primary amine coupling in accordance with the manufacturer's instructions. […] All runs were double referenced with a buffer injection for purified sample or media for the supernatant samples over the human and cyno SAP surfaces. Analysis was carried out at 25° C. using HBS-EP buffer. […] Data were analysed using the 1 to 1 dissociation model within the Biacore T100 evaluation software.
The data generated in Tables 6a and 6b show off-rates (kd) of the humanised SAP-E and SAP-K antibody supernatants respectively. The values were based on a single curve and used for ranking purposes between the different constructs for binding to human SAP. […] The SAP-E humanised L1 light chain was the best light chain variant and combination of the L1 with the H1 heavy chain variant gave a humanised antibody with an acceptable off-rate whilst keeping the number of back mutations to a minimum.

native human SAP = molecular target: T3, native human SAP (Homo sapiens, UniProt P02743); assay: Double immunodiffusion in agarose gel; type: binding; conditions: isolated pure human SAP and whole human serum
T3 construct: against both isolated pure human SAP and whole human serum; from tissue; host or cells: whole human serum, and isolated pure human SAP

human SAP [4] = molecular target: T1, human SAP; assay: Competition ELISA with chimeric anti-SAP mAb; type: binding; conditions: human SAP coated at 5 μg/mL; purified murine mAb
Text: A constant concentration of chimeric anti-SAP mAb was mixed with serial diluted (1:1) amounts of mouse anti-SAP mAbs. Plates were washed and the amount of chimeric antibody bound to the immobilised human SAP was detected using goat anti-human Kappa Light chain peroxidase conjugate (Sigma, A7164). The ELISA was developed using O-phenylenediamine dihydrochloride (OPD) peroxidase substrate (Sigma, P9187).

human SAP [5] = molecular target: T1, human SAP; assay: Human SAP binding ELISA, SAP-K and SAP-E hybridoma antibodies; conditions: 1 μg/mL lower density coating of human SAP
Description: 1 μg/mL or 5 μg/mL human SAP was directly immobilised onto an ELISA plate and blocked with 1% BSA/TBS plus 0.05% TWEEN20. Anti-SAP antibodies from purified material were titrated across the plate. Bound antibody was detected by treatment with a horse-radish peroxidase (HRP)-conjugated rabbit-anti-mouse IgG antibody (Dako, P0260). The ELISA was developed using O-phenylenediamine dihydrochloride (OPD) peroxidase substrate (Sigma, P9187).

human SAP [6] = molecular target: T1, human SAP; assay: Biacore (BIAcoreX), human SAP covalently immobilised on the chip; type: binding; conditions: mean and SD of 3 replicate measurements
[7] = test system: mice with systemic AA amyloidosis; assay: SAP-K in clearing amyloid deposits, mouse AA amyloidosis model (Example 15); type: in vivo; conditions: lower doses of 1 mg, 0.5 mg and 0.1 mg per mouse
Description: AA amyloidosis was induced and confirmed in wild-type C57BL/6 mice as detailed in Example 10 above. After loading the amyloid deposits with human SAP also detailed in Example 10, groups of mice were treated with 50 mg per mouse of total IgG as the whole IgG fraction (batch 2866) of the sheep polyclonal anti-human SAP antiserum providing a dose of 7 mg of actual anti-SAP antibody, […], and, as a negative control, isolated purified monoclonal mouse IgG2a antibody specific for an unrelated human antigen and unreactive with either human SAP or any murine antigen. All mice were killed 17 days later for estimation of amyloid load by Congo red staining.

human SAP [8] = molecular target: T1, human SAP; assay: Western blotting and fragment epitope mapping (CNBr, chymotrypsin); type: binding
Text: This is consistent with the kinetic stability and resistance to denaturation of SAP (Manning, M. and Colón, W. (2004) Biochemistry, 43: 11248-11254).
B, SDS-PAGE analysis of SAP cleaved with CNBr. […] These were precisely confirmed by mass spectrometry. […] C, SDS-PAGE analysis of SAP digested with chymotrypsin. Left panel: Coomassie blue stain; lane 1, untreated control SAP; lane 2, SAP after chymotrypsin digestion, showing the expected major fragments corresponding to residues 1-140 and 145-204. These were precisely confirmed by mass spectrometry. Right panel: Western blot with SAP-E showing intense staining of intact untreated SAP in lanes 1 (500 ng loaded) and 2 (100 ng), and also residual intact SAP in lanes 3 and 4 which contained the chymotrypsin digested SAP at different loadings. Very weak binding of SAP-E to the residue 1-140 fragment is seen only in lane 3 which was most heavily loaded. […] D, Sequence comparison between human SAP (h) and mouse SAP (m) for residues 136-147. Top panel, differences indicated above by residues shown in black in the murine sequence. Bottom panel, position of this extended loop with 140Y at its apex shown in white in the 3D subunit structure of human SAP. The different residues in the murine sequence are shown in black. The grey spheres represent the calcium atoms bound in the ligand binding pocket.

human SAP [9] = molecular target: T1, human SAP; assay: Binding of mouse monoclonals to immobilised human SAP in vitro
Text: SAP-E and SAP-K are from two groups of anti-SAP monoclonals, each group having been tested separately for their binding to human SAP in vitro.
SAP-K was selected from among the 6 different, most avidly binding, mouse IgG2a monoclonals, derived by standard techniques from immunization with purified human SAP and a conventional fusion to produce hybridomas which were cloned by routine methods. […] This was the case regardless of whether the human SAP had been directly immobilised on plastic surfaces by non-specific adherence or by covalent attachment, or by the specific calcium dependent binding of SAP to immobilised ligands, whether amyloid fibrils or the small molecule ligand, phosphoethanolamine. SAP-K also bound well to directly immobilised SAP in the presence or absence of calcium, and if the SAP had previously been complexed with CPHPC and then covalently ‘fixed’ in the decameric SAP-CPHPC complex (Pepys, M. B. et al (2002) Targeted pharmacological depletion of serum amyloid P component for treatment of human amyloidosis. Nature, 417: 254-259; Kolstoe, S. E. et al (2009) Molecular dissection of Alzheimer's disease neuropathology by depletion of serum amyloid P component. Proc. Natl. Acad. Sci. USA, 106: 7619-7623). SAP-E also bound well to human SAP in all these different configurations.

[10] = CM5 chip, calcium, bivalent analyte model, 25° C., for comparison only, avidity effect

T1 sequence (P02743 20-223): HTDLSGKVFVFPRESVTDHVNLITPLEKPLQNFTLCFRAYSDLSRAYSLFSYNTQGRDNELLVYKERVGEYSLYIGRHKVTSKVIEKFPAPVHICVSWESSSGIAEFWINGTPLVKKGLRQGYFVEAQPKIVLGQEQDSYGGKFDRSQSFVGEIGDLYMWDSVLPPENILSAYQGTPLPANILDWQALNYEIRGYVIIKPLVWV
T3 sequence (P02743 20-223): as above
T2 sequence (P02743 20-223): as above

kd (human SAP [3]): 0.0296 s⁻¹
B1: SAP-K H1L1: humanised SAP-K, VH SEQ ID NO:38, VL SEQ ID NO:42 (antibody, V domains shown)
VH: QVQLVQSGAEVKKPGSSVKVSCKASGYTFTSYWMHWVRQAPGQGLEWMGMIHPNSVNTNYNEKFKSRVTITADKSTSTAYMELSSLRSEDTAVYYCARRNDYYWYFDVWGQGTLVTVSS
VL: DIQMTQSPSSLSASVGDRVTITCKASQNVNSNVAWYQQKPGKAPKALIYSASYRYSGVPSRFSGSGSGTDFTLTISSLQPEDFATYYCQQCNNYPFTFGQGTKLEIK

kd (human SAP [3]): 0.0321 s⁻¹
B2: SAP-K H2L1: humanised SAP-K, VH SEQ ID NO:39, VL SEQ ID NO:42 (antibody, V domains shown)
VH: B1 VH with M48I, V68A
VL: B1 VL

kd (human SAP [3]): 0.0479 s⁻¹
B3: SAP-K H0L1: humanised SAP-K, VH SEQ ID NO:37, VL SEQ ID NO:42 (antibody, V domains shown)
VH: B1 VH with Y27G, T30S
VL: B1 VL

Continued, molecule first:

Molecule: glycine
binding with respect to H3L0 (human SAP [1]): improved binding with respect to H3L0, but to a lesser extent than alanine

Molecule: serine
binding with respect to H3L0 (human SAP [1]): improved binding with respect to H3L0, but to a lesser extent than alanine

Molecule: valine
binding with respect to H3L0 (human SAP [1]): improved binding with respect to H3L0, but to a lesser extent than alanine

Molecule: O=C(O)[C@H]1CCCN1C(=O)CCCCC(=O)N1CCC[C@@H]1C(=O)O [CPHPC, (R)-1-[6-[(R)-2-Carboxy-pyrrolidin-1-yl]-6-oxo-hexanoyl]pyrrolidine-2-carboxylic acid]
depletion of circulating SAP (circulating SAP): depletes almost all circulating SAP
effect on amyloid [2]: did not produce amyloid regression

B4: SAP-K: mouse IgG2a monoclonal anti-human SAP antibody, VH SEQ ID NO:17, VL SEQ ID NO:19 (antibody, V domains shown)
VH: QVQLQQPGAELIKPGASVKLSCKASGYTFTSYWMHWVKQRPGQGLEWIGMIHPNSVNTNYNEKFKSKATLTVDKSSSTAYMQLNSLTSEDSAVYYCARRNDYYWYFDVWGTGTTVTVSS
VL: DIVMTQSQKFMSTSVGDRVSVTCKASQNVNSNVAWYQQKPGQSPKALIYSASYRYSGVPDRFTGSGSGTDFTLTITNVQSEDLAEYFCQQCNNYPFTFGSGTKLEIK
binding to native human SAP (immunoprecipitation) (native human SAP): bound apparently equally well to native human SAP
competition with SAP-E chimera (human SAP [4]): no competition
binding to the immobilised human SAP (human SAP [5]): greater binding than the SAP-E
ka (human SAP [6]): 3.18 ± 5 × 10^4 M^−1 sec^−1
kd (human SAP [6]): 1.7 ± 0.9 × 10^−5 sec^−1
ka (human SAP [1]; [10]): 300000 M⁻¹ s⁻¹
kd (human SAP [1]; [10]): 0.000219 s⁻¹
effect on amyloid deposits [7]: no significant effect
binding to native human SAP in western blotting (human SAP [8]; after agarose gel electrophoresis in physiological buffers): bound
binding to human SAP in western blotting from reduced SDS-PAGE (human SAP [8]; denatured human SAP): only recognises native human SAP
binding to human SAP in vitro (human SAP [9]; compared within the group of monoclonals): strongest binding to SAP, within their groups; also recorded: greatest binding to immobilised human SAP
binding to immobilised human SAP (human SAP [9]; human SAP sparsely available, plates coated with 1 μg/ml): much more SAP-K than SAP-E became bound
